In article PMC5770554, “Molecular Insights into Function and Competitive Inhibition of Pseudomonas aeruginosa Multiple Virulence Factor Regulator” (mBio, 2018):

Target: the molecule itself
Assay: crystal structure; MvfR LBD with the inhibitor M64 bound; space group C 2 2 2_(1), 2.65 Å, two monomers in the asymmetric unit; tetrameric arrangement in the crystal

B1: MvfR ligand binding domain (LBD), residues 94 to 295 (domain or fragment)
chain: TNLRVLLDTAIPPSFCDTVSSVLLDDFNMVSLIRTSPADSLATIKQDNAEIDIAITIDEELKISRFNQCVLGYTKAFVVAHPQHPLCNASLHSIASLANYRQISLGSRSGQHSNLLRPVSDKVLFVENFDDMLRLVEAGVGWGIAPHYFVEERLRNGTLAVLSELYEPGGIDTKVYCYYNTALESERSFLRFLESARQRLREL
notes: Thr that precedes residue 94 in the construct (His-THB-SUMO-ULP-Thr) and is left after cleavage with SEN protease; the model numbers it Thr93; Q9I4X0 is the entry of strain PAO1; Cloned into pET28a; the model comprises Thr93 to Leu295; also called MvfR LBD; PqsR LBD; source: E. coli BL21(DE3), purified (Ni-NTA, negative Ni-NTA after cleavage of the tag with SEN protease, gel filtration); not …
  stoichiometry N: 4
